# Experimental data published in the supplement of paper PMC9170038.
# System: K4 kissing-loop RNA reporter
# Test: apparent KD of K4 kissing-loop reporter; higher = weaker reporter binding
# Settings: Eterna round: R107; input ligand: arginine 13.2 mM
# Protocol: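 RNA-MaP round R107: designed RNA switches with theophylline, tryptophan, arginine or FMN aptamers are transcribed on-chip within common flanks. They are titrated with a labelled K4 kissing-loop RNA reporter in RNA-MaP buffer (100 mM Tris pH 7.5, 80 mM KCl, 4 mM MgCl2), without ligand or with the indicated ligand. Median apparent KD per design.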
# 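Further: bound reporter read as fluorescence of individual clusters on recovered sequencing chips by microscopy, with normalized cluster intensities fitted with a binding model.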
row,Sequence,apparent KD of K4 kissing-loop reporter
1,GUACGCUCCCGAGUGAUGUUCGGUAAUCGCUAGGAUAUCGCUUUUGCGAGAAGGAGCGGAAUGAGGAAACUCGUUCUGAGUGUAC [FMN A 26],254 nM
2,CCAAGGUGCUUCUGUUCAGUGAUGUUGGUACGAGGACCGGUACGGCCGCCACUCGCCGUACAAUCGCUAGUUAAUCAUUGGCAAG [theeternabot_exclusion_KL_Trp_A_40],408 nM
3,AGUGGACGUGUCUAGAGUGAUGUUCCGGAUACCAGACACGAAAGUGUCCCUUGGCAGCCGGAGUGAUGUUCUGGCGUUCACUAAA [Omei KL Theo A Exc B v6],296 nM
4,AGACUACCACACUGUCAAUAGACAGUGUACUAGGAUAUGCUGAUAAGCAGAAGGAGUGAUGUUCCUCGGUAGUCAAUAAAAUAAU [FmnAX 13 U28+C67],300 nM
5,CCUAUCUCAUACGAUACCAGUCUAUUAAAACGAGUGAUGUUCGAAUAUUUGCCAUAUAAUGACCCUUGGCAGCGUAUGGGAUAGG [Ex Theophylline B K4 9],229 nM
6,UGUGUACCGGGAAGGAGCGUGAAUGAGAAUGGAUAUAGUGAUGUUAUAUAUACGAACGAAUCGCAGGUAGGUCGCCCGGAUCCCU [SSArgB.Y],408 nM
7,AGUACGGACGCGGCCGCCACUCAGAAGAAGACGGUAGUGAUGUUACUGAUGGUGAGAACAAUAAAGAGGACCGGGUGUCGUGCAA [#06 K4 Tryptophan B Same State],464 nM
8,UGUUAUGUAUCAGGAUAUUAGUGAUGUUUGUUUAUGUUAGUGAUGUUGAUAUUUGUUUUAUGUAUUUAAGAAGGGAUUGAGAAGU [ffcfxmullin],21.4 nM
9,GAUUCAGUGAUGUUGGAAGGCGAGCGGGAUACCAGCCAAGACUCAGGCCCUUGGCAGCCCACAUAUCCCAGGUAGAUAGUAGCUC [Same State - Theophylline A (Freestyle 12)],111 nM
10,UGUAUGGACUGAAGGAGCGGUAUAUAAACUGAGUGAUGUUCGGCAGAUAAAGGCGCAAGCCACCAGGUAGGUCGCAGUCCAUACU [KL-SSArg B2],207 nM
11,AUUUUUUUAUCAGGAUAUUAGUGAUGUUUGUUUUUGUUAGUGAUGUUGAUAUUUGUUUUAUGUAUUUAAGAAGGGAUUGAGAUGU [sfsmullin],15.5 nM
12,GGUAGCAUGGCGGCCGCCACUUCAUAUGGAGUGAUGUUCCAGCAUCUUAUAAGACUGAGGUGAGGAAGGACCGGGCCAUGCUACC,561 nM
13,AUUAUAUAGGCGGCCGCCACUAGUGAUGUUAGUGACUUUAUGAAAACAUAAAGAAUAAAAUAAUAUAGGACCGGGCCAUAAUAUU [AstrosExTryB#5],369 nM
14,UAGAGUCACAAGACAGUGAUGUUGUCUACUGAGGAUAUCAUGAAUAUGAGAAGGCAGUGUUGGAGGUCUCUAACAACAGACUCUG [FMN A SS t3],227 nM
15,UUUCUACCGGGAAGGAGCGUGAAUGAUAAUGGAUAUAGUGAUGUUAUAUAUACGAACGAAUCGCAGGUAGGUCGCCCGGAUGACU [SSArgB.T],503 nM
16,AAUAUAGUGAUGUUAUAUAAGAAGGAGUUACGAGGACCGGUACGGCCGCCACUCGAAACGAGUGAGGGCUUGGGAGAUUGGGCCC [SSTryptA.I],346 nM
17,GCCGUAGUUGGAAGGAGCGUGAAUGGCCUCUAUCCAAAGUGAUGUUUUGUUGAAGACUGUUCACAGGUAGGUCGCCAACUACGGC [#09 K4 Arginine B Same State],130 nM

row,Sequence,apparent KD of K4 kissing-loop reporter
1,AAUAAUGAUGUUUAGGAAAGUAAAAUGGAAGGAGCGUGCGAAAGCACAGGUAGGUCGCCAGUGAUGUUGGAACCUGAGCAUCAAA [#SwitchBubble 19 #K4Late],633 nM
2,UGUCAUUGGUCGGCCGCCACUCCAUAAAGAGUGAUGUUCUGAAAGACGGAUCGAAAGAUCUGUCGGAGGACCGGGACCGAUGACU [FiskerMod 3 - Jieux - Same State - Tryptophan B],665 nM
3,GGACCACCAGUGAUGUUGGAGAUAAACUCCAAGGAUAUGACGAAAGUCAGAAGGUGGUAAUAAGACGUCAAAGACGUCAGGUCCA [FmnA 20 #SwitchBubble #K4Early],116 nM
4,UAUGUACACGGGUAGUUGUACAUCGAGGAAGGAGCGUGCGCAGGCACAGGUAGGUCGCCUCAGCGCACGAGUGAUGUUCGUGGGC [Xexegeus],170 nM
5,UGGCGAGUGAUGUUCGUUGUUGUAGUGUGCCGAGGACCGGUACGGCCGCCACUCGGGUUGGUUGUUGUUGUUGUUGUUGUUGUUG [whbob_SS_tryp_A],110 nM
6,UUCUUGAUGGAAACAUCGAGGAUUACUGAUACCAGUAUCGAUAGAUACCCUUGGCAGCAGAAUCAGUAAUCACGAGUGAUGUUCG [Ex Theophylline A K4 6],497 nM
7,UGUAUGGACUGAAGGAGCGGUAGAUAAACUGAGUGAUGUUCGGCAAAUAAAGGCGCAAGCCACCAGGUAGGUCGCAGUCCAUACU [KL-SSArg B1],182 nM
8,UGGAGUUGACGAAAAGUCAACUCCUGAGAAGGAGCGGACGAAAGUCCAGGUAGGUCGCUCACUACCAGUGAUGUUGGUACUAAAA,157 nM
9,CGUGGUGCUCGCCAGCUGUGCGAGCGGUGGGAGGAUAUGUCGCGAGACAGAAGGCCCAGUGAUGUUGGGCAGGCUCGUAGAUCAA [Orbemaed],118 nM
10,CAGAACUUGUAUACAGGGUAUGUAAGAGAUACCAGUCAAAUUAAAGACCCUUGGCAGCUCAGGCGAGUGAUGUUCGCAGGCUAAC [Exclusion Theophylline A GF 18],118 nM
11,GACUCAUGUAGAAGGAGCGUCAGAAGCUACAGACAUGAGUGAUGUUCAUGUUAGUUGAUUUGACAGGUAGGUCGCUACAGCAGGA [KL-SSArg B15 #analogue],207 nM
12,UGGAGUUGACGAAAAGUCAACUCCUGAGAUACCAGUGACGAAAGUCACCCUUGGCAGCUCACUGCCAGUGAUGUUGGUUUAUAAA [#OpenEnded 2],135 nM
13,UGAUUUAACUGAAGGAGCGGCAAGAGAGAAGGAAAUAUAGUGAUGUUAUAUAAGAGAGAGAGCCAGGUAGGUCGCAGAGGGAGGA [ExArgB.E],126 nM
14,AGGUCACUACUACAGUGAUGUUGUGGAGAGCAGGAUAUGCAGAAAUGCAGAAGGGCUCGCUCUCAGUGACCGAAUGAAACAUUCA [Omei KL FMN A SS A v8],724 nM
15,CAAACGGGUUGGCUUGGAGACUGCAGACGCAAGGAUAUCGCGAAGACGAGAAGGUGCGGGCCUGGUAGUGAUGUUACAGUUUGGU [theeternabot_sameState_KL_FMN_A_21],326 nM
16,AAGCAGUCCCUCGAAGCCAUCGAAGAUGGGCGAGGACCGGUACGGCCGCCACUCGGAGUGAUGUUCCGAAGACUGCAAAAUAAAA [MatMod 3 - Jieux - Exclusion - Tryptophan A],316 nM

# Same assay, conditions: Eterna round: R107; input ligand: none
row,Sequence,apparent KD of K4 kissing-loop reporter
1,UGUGGAGAAUAUGAUACCAGCAGUGAGAGAGAGGAAGUAUAGUGAUGUUAUAUGAGAGAAUGCCCUUGGCAGCAUAAGAAGAAGG [SSTheophylB.D],170 nM
2,UCUUGCGGCGCAGGAUAUCCGUCUGUCUCCUGCGUCAUUCUGCAGUGAUGUUGCAGGUGACGGAUAGGAGAAGGGCGAACGUACA [Diinonorce],124 nM
3,AAGUCAUAGGCAGGAUAUGCAUAGUAAUAAGGCAAUAUCUACGUAUAGAGUGAUGUUUUGUACCAGGCAGAAGGGCUACAUCAGU [FMN B Excl V9 (+4A/C)],514 nM
4,AAUAGGGAGUGAUGUUCCCUCACUUAUGAUACCAGUGCCAUCGGACACCCUUGGCAGCAUACGGGCAGUGAUGUUGUUCUUGGAA [Exclusion Theophylline A GF 25],156 nM
5,GAAUAAUAUGUACCAGUGAUGUUGGUACAACGAGGACCGGUACGGCCGCCACUCGGAUACGAGUGGAUACAUCACUGACCAUUCG [(H1)-(H2)-(Trp1)-(Trp2)-(T)'-(H)'-(T)''_Design9],368 nM
6,GCGCGUCAUGUCAGCGGUGACACUGUCGAUACCAGCGCCGGAAGGCGCCCUUGGCAGCGACGUGCUGGAGUGAUGUUCCAGCGUG [#2 Exclusion - Theophylline A Attempt #26 (HarryS)],178 nM
7,CCCUCACGAGUGAUGUUCGUAGGGUACAGUCAGGAUAUCAUGCGGUUGAGAAGGGACAGAGAAGGCGGCGACGGGUUGCUUAUCU [Atenus],277 nM
8,GAUUCAGUGAUGUUGGAAGGCGAGCGGGAUACCAGCCAAGACUCAGGCCCUUGGCAGCCCACAUAUCCCACGUAGAUAGUAGCUC [Same State - Theophylline A (Freestyle 13)],147 nM
9,CGGUACGUCGCAGGAUAUGUAAAUGUAAGUGAUGUUUACAUACCAUGCUGGCGAAAGCCAGCAUGGACAGAAGGGCGACGUACCG,470 nM
10,AAUUUGUAUUUAUUCUUUAAAUGUUCAGAAGGAGCGUGAAUUAUCACAGGUAGGUCGCUGAGCUAGUGAUGUUAGCUAUACACUA [#01 K4 Arginine A Exclusion],127 nM
11,GUACGCUCCCGAGUGAUGUUCGGUAAUCGCUAGGAUAUCGCUUUUGCGAGAAGGAGCGGAAUGAGGAAACUCGUUCUGAGUGUAC [FMN A 26],350 nM
12,CCAAGGUGCUUCUGUUCAGUGAUGUUGGUACGAGGACCGGUACGGCCGCCACUCGCCGUACAAUCGCUAGUUAAUCAUUGGCAAG [theeternabot_exclusion_KL_Trp_A_40],660 nM
13,AGUGGACGUGUCUAGAGUGAUGUUCCGGAUACCAGACACGAAAGUGUCCCUUGGCAGCCGGAGUGAUGUUCUGGCGUUCACUAAA [Omei KL Theo A Exc B v6],549 nM
14,AGACUACCACACUGUCAAUAGACAGUGUACUAGGAUAUGCUGAUAAGCAGAAGGAGUGAUGUUCCUCGGUAGUCAAUAAAAUAAU [FmnAX 13 U28+C67],286 nM
15,CCUAUCUCAUACGAUACCAGUCUAUUAAAACGAGUGAUGUUCGAAUAUUUGCCAUAUAAUGACCCUUGGCAGCGUAUGGGAUAGG [Ex Theophylline B K4 9],244 nM
16,UGUGUACCGGGAAGGAGCGUGAAUGAGAAUGGAUAUAGUGAUGUUAUAUAUACGAACGAAUCGCAGGUAGGUCGCCCGGAUCCCU [SSArgB.Y],432 nM
17,AGUACGGACGCGGCCGCCACUCAGAAGAAGACGGUAGUGAUGUUACUGAUGGUGAGAACAAUAAAGAGGACCGGGUGUCGUGCAA [#06 K4 Tryptophan B Same State],523 nM
18,UGUUAUGUAUCAGGAUAUUAGUGAUGUUUGUUUAUGUUAGUGAUGUUGAUAUUUGUUUUAUGUAUUUAAGAAGGGAUUGAGAAGU [ffcfxmullin],45.6 nM
19,GAUUCAGUGAUGUUGGAAGGCGAGCGGGAUACCAGCCAAGACUCAGGCCCUUGGCAGCCCACAUAUCCCAGGUAGAUAGUAGCUC [Same State - Theophylline A (Freestyle 12)],142 nM
20,UGUAUGGACUGAAGGAGCGGUAUAUAAACUGAGUGAUGUUCGGCAGAUAAAGGCGCAAGCCACCAGGUAGGUCGCAGUCCAUACU [KL-SSArg B2],381 nM
21,AUUUUUUUAUCAGGAUAUUAGUGAUGUUUGUUUUUGUUAGUGAUGUUGAUAUUUGUUUUAUGUAUUUAAGAAGGGAUUGAGAUGU [sfsmullin],28.2 nM
